Laboratory results published in patent publication US11466066B2, “Variants of human BMP7 protein” (ELI LILLY AND COMPANY, priority 2017, dated 2022).
Positions count from the first letter of the chain named. Names and notes keep the numbering of the source. Marks after values point to notes of the source that are not given here.

Tests used:
[1] = Thermal unfolding assay (circular dichroism); assay type: physicochemical; conditions: CD at 208 nm; 10 mM citrate, 300 mM NaCl, pH 7.4
Method: The effect of temperature on the conformational stability of human BMP7 protein variants may be followed by circular dichroism (CD) on a Jasco J-810 instrument equipped with a thermoelectric sample compartment. Briefly stated, 0.2-1.0 mg/mL pro-BMP7 may be formulated in storage buffer (10 mM citrate, 300 mM NaCl, pH 7.4) and loaded into a 0.02 cm path-length CD cuvette. The sample may be heated from 20 to 80° C. at a linear rate of 1° C./minute and the resulting CD signal at 208 nm may be recorded every 0.2° C. using a 1 second signal response time. A non-linear fit to equation 1 may be performed by the program JMP (SAS Institute Inc, Cary, N.C.) to obtain the thermal unfolding mid-point (Tm).
[formula] where, Yu and Yf are fit and represent the Y-intercept of the pre- and post-transition baselines, respectively. Mu and Mf are fit and represent the slope of the pre- and post-transition baselines, respectively. Hm and S are fit and represent enthalpy and entropy, respectively. T is the measured temperature in Kelvin units.

[2] = tested on: human articular osteoarthritic (OA) chondrocytes; assay: Proteoglycan synthesis (35S incorporation); assay type: cell-based; conditions: 7 days
Description: Proteoglycan synthesis in human articular osteoarthritic (OA) chondrocytes is an n vitro model for chondrocyte activity. The effect of human mature BMP7 protein variants may also be evaluated on proteoglycan synthesis m human articular OA chondrocytes in vitro and compared to wild type human mature pro-BMP7. The proteoglycan synthesis may be measured using ^35S incorporation. Arthritic human knee cartilage is obtained from donors at surgery. The cartilage pieces may be finely chopped and chondrocytes may be isolated from the associated matrix by enzymatic digestions. The cartilage may be first digested with 1 mg/ml pronase in DMEM/PRF (phenol red free) media with 5% Fe supplemented calf serum (FCS) and 2% penicillin-streptomycin-antimycotic for 60 minutes followed by overnight digestion with 1 mg/ml collagenase II in DMEM/PRF media with 5% FCS) and 2% penicillin-streptomycin-antimycotic at 37° C. The cells may be washed with DMEM/F-12 media and then resuspended in DMEM/F-12 with 5% FCS and counted with a Coulter counter. The cells may be plated at a density of 30,000 cells/well in 96-well collagen coated CytoStar T plate in growth media containing DMEM, 5% FCS. ITS (insulin, transferin, selenium) and 1% penicillin-streptomycin-antimycotic. After 24 hours, the media may be replaced with 100 μl of growth media containing 10 μCi/ml (1 μCi/well) of ^35S and treated with wild type human pro-BMP7 or a human pro-BMP7 protein variants at various doses. Then the cells may be incubated for approximately 7 days at 37° C. with 5% CO2. At the end of the treatment period the media may be removed, replaced with phosphate buffered saline and ^35S incorporation is counted using a Wallac 1450 MicroBeta TriLux Liquid Scintillation Counter & Luminometer.

[3] = tested on: MFc7 mouse renal myofibroblasts; assay: Alkaline phosphatase stimulation in MFc7 cells; assay type: cell-based; conditions: 1 μg/ml pro-BMP7, 1 μM ATRA, 48 hours
Method: 3T3-L1 fibroblasts and MFc7 mouse renal myofibroblasts may be grown essentially as described in Example 2 above. After 48 hours the cells may be washed with PBS prior to the addition of either DMEM/2% dialyzed FBS or OPTI-MEM/2% dialyzed FBS medium containing control vehicle, 1 μg/ml human proBMP7 protein, 1 μM ATRA or a combination of both human BMP7 protein (1 μg/ml) and ATRA (1 μM) may be added for 48 hours. After treatment the cells may be rinsed with PBS and stored at −80° C. for approximately 20 minutes. The cells may be thawed at 37° C. for 30 minutes and 100 μl of PNPP may be added to every well. The plate may be incubated at 37° C. for 1 hour. The absorbance at 405 nm may be read on a plate reader.

[4] = tested on: meniscal tear (MT) induced rat model of cartilage degeneration; assay: Meniscal tear rat model of cartilage degeneration; assay type: in vivo
Description: The effect of human mature BMP7 protein variant (SEQ ID NO: 8) may be evaluated using an osteoarthritic (OA) pain in the meniscal tear (MT) induced rat model of cartilage degeneration. Male Lewis rats (approximately 25 weeks of age) may be used for such a study. Briefly described, rats may be anesthetized with 3% isoflurane prior to surgery. The right knee may be flexed and a transverse medial incision is made along the proximal antero-medial aspect of the tibia exposing the medial […] ligament. The […] ligament and the joint capsule may be incised simultaneously freeing the tibial attachments of the medial meniscus. Approximately 3 mm of the meniscus may be freed from its attachment to the margin of the tibial plateau and the meniscus may be transected to simulate a complete tear. The incision may be closed with surgical glue.
The animals may be treated with wild type human mature BMP7 at a dose of 350 ng/knee or human mature BMP7 protein variant F9 (SEQ ID NO: 8) at two doses of 49 ng or 245 ng/knee in 50 μl phosphate buffered saline (PBS), pH 7.4. The treatment may be initiated 3 weeks after MT surgery and continued for […]. Animals may be administered weekly intra-articular injections of wild type human mature BMP7 or human mature BMP7 protein variant F9 (SEQ ID NO: 8) or vehicle at various doses for 5 weeks into the operated knee. Pain measurements may be made by incapacitance testing on days 18 (baseline), 25, 31, 42 and 53 post MT surgery using an incapacitance tester (Columbus Instruments International, Columbus, Ohio). Changes in hind paw weight distribution between the osteoarthritic (right) and contralateral control (left) limb may be utilized as an index of joint discomfort (measure of pain) in the osteoarthritic knee. Results may be presented as the difference in weight bearing between the contralateral control (left) and the osteoarthritic (right).

Wild type human pro-BMP7: homodimers of wild type human mature BMP7 in a non-covalent complex with wild type human pro-domain [reference compound]
thermal unfolding mid-point (Tm) [1]: 61 °C
Proteoglycan Synthesis (35S incorporation) ([2]; Treatment (ng) 0.1): 679 ± 120 CPMs
Proteoglycan Synthesis (35S incorporation) ([2]; Treatment (ng) 0.4): 724 ± 120 CPMs
Proteoglycan Synthesis (35S incorporation) ([2]; Treatment (ng) 1.2): 679 ± 120 CPMs
Proteoglycan Synthesis (35S incorporation) ([2]; Treatment (ng) 3.7): 666 ± 130 CPMs
Proteoglycan Synthesis (35S incorporation) ([2]; Treatment (ng) 11): 723 ± 72 CPMs
Proteoglycan Synthesis (35S incorporation) ([2]; Treatment (ng) 33): 799 ± 65 CPMs
Proteoglycan Synthesis (35S incorporation) ([2]; Treatment (ng) 100): 1500 ± 309 CPMs
Proteoglycan Synthesis (35S incorporation) ([2]; Treatment (ng) 300): 3325 ± 237^a CPMs
fold change in alkaline phosphatase stimulation relative to control vehicle treated cells [3]: 21 fold

B1: Human mature BMP7 protein variant F9 (SEQ ID NO: 8): homodimer wherein each monomeric subunit has SEQ ID NO: 8 (Y65G/I86L/F93V/N110G/Y128W), disulfide linked (protein)
chain: STGSKQRSQNRSKTPKNQEALRMANVAENSSSDQRQACKKHELYVSFRDLGWQDWIIAPEGYAAGYCEGECAFPLNSYMNATNHALVQTLVHVINPETVPKPCCAPTQLGAISVLYFDDSSNVILKKWRNMVVRACGCH
modifications: homodimer, disulfide linked
Difference in hind paw weight bearing ([4]; Treatment C, 49 ng/knee weekly intra-articular, Baseline (day 18 post MT surgery)): 52.48 ± 2.11 g
Difference in hind paw weight bearing ([4]; Treatment C, 49 ng, Day 25): 49.96 ± 0.66 g
Difference in hind paw weight bearing ([4]; Treatment C, 49 ng, Day 31): 49.52 ± 1.10^b g
Difference in hind paw weight bearing ([4]; Treatment C, 49 ng, Day 42): 44.8 ± 3.04^b g
Difference in hind paw weight bearing ([4]; Treatment C, 49 ng, Day 53): 45.70 ± 2.77 g
Difference in hind paw weight bearing ([4]; Treatment D, 245 ng/knee weekly intra-articular, Baseline (day 18 post MT surgery)): 52.02 ± 2.19 g
Difference in hind paw weight bearing ([4]; Treatment D, 245 ng, Day 25): 49.77 ± 1.00 g
Difference in hind paw weight bearing ([4]; Treatment D, 245 ng, Day 31): 49.54 ± 2.77^b g
Difference in hind paw weight bearing ([4]; Treatment D, 245 ng, Day 42): 42.37 ± 1.28^b g
Difference in hind paw weight bearing ([4]; Treatment D, 245 ng, Day 53): 38.68 ± 1.68^b g

B2: Wild type human mature BMP7 (SEQ ID NO: 2): dimer of two glycosylated, 139 amino acid disulfide-linked proteins of about 35 kDa, SEQ ID NO: 2 (protein, listed as Homo sapiens)
chain: B1 chain with G65Y, L86I, V93F, G110N, W128Y
modifications: disulfide-linked glycosylated homodimer
Difference in hind paw weight bearing ([4]; Treatment B, 350 ng/knee weekly intra-articular, Baseline (day 18 post MT surgery)): 52.33 ± 2.45 g
Difference in hind paw weight bearing ([4]; Treatment B, 350 ng, Day 25): 50.76 ± 1.09 g
Difference in hind paw weight bearing ([4]; Treatment B, 350 ng, Day 31): 49.97 ± 1.10 g
Difference in hind paw weight bearing ([4]; Treatment B, 350 ng, Day 42): 46.81 ± 1.34^b g
Difference in hind paw weight bearing ([4]; Treatment B, 350 ng, Day 53): 47.77 ± 1.78 g
